According to patent US20190010458:

Target: T1, HA-Etv2 (Mus musculus) (UniProt P41163)
T1 sequence: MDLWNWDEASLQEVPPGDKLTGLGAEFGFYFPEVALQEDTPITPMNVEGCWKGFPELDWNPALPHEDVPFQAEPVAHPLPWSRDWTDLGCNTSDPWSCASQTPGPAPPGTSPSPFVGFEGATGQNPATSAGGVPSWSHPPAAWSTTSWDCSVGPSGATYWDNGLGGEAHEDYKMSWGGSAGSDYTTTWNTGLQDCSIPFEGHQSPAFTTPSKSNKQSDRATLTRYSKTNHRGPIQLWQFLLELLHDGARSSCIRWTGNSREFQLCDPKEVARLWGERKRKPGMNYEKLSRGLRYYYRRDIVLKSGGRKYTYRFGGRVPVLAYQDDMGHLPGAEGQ
Conditions: ChIP-qPCR with anti-HA, Dox-induced EBs

## miR-130a upstream promoter region (ChIP amplicon)
  binding signal (fold enrichment): 15
